Assay results reported in US7456001B2, “Lipoxygenase” (Novozymes A/S, priority 2000, dated 2008).

Key:
[1] = test system: CCCCC/C=C\C/C=C\C/C=C\C/C=C\CCCC(=O)O; experiment: purified protein, by the assay type; conditions: other: lipoxygenase produced as in Example 4, standard assay, 25° C., pH 7.0
Protocol: (§1) The lipoxygenase activity was determined spectrophotometrically at 25° C. by monitoring the formation of hydroperoxides. […] The enzyme was typically diluted sufficiently to ensure a turn-over of maximally 10% of the added substrate within the first minute. The absorbance at 234 nm was followed and the rate was estimated from the linear part of the curve. One unit causes an increase in absorbance at 234 nm of 0.001/min.
(§2) The substrate specificity of the lipoxygenase was studied using the standard assays condition with a number of different compounds as substrate. All substrates were produced as dispersions with 0.2%(v/v) Tween20. The amount of compound added to make up these stock solutions was determined by mass, since viscosity made accurate measurement of volume impossible. The limiting rate constant and the specificity constant were determined by varying the amount of substrate added in the assays. The resulting rates were plotted against the concentration of substrate used. Finally, the plots were fitted by non-linear least squares regression to the theoretical hyperbolic curve of the Michaelis-Menten equation. The cis-trans-conjugated hydro(pero)xy fatty acids were assumed to have a molecular extinction coefficient of 23,000 M^−1 cm^−1.
(§3) The activity of lipoxygenase produced as in Example 4 was tested on various substrates as described above. The results are expressed as kcat (or Vmax), KM and kcat/KM according to the Michaelis-Menten equation:

[2] = test system: CCCCC/C=C\C/C=C\CCCCCCCC(=O)OC; experiment: purified protein, by the assay type; conditions: other: lipoxygenase produced as in Example 4, standard assay, 25° C., pH 7.0
Protocol: as §1, §2, §3

[3] = test system: CCCCC/C=C\C/C=C\CCCCCCCCO; experiment: purified protein, by the assay type; conditions: other: lipoxygenase produced as in Example 4, standard assay, 25° C., pH 7.0
Protocol: as §1, §2, §3

[4] = target: lipoxygenase (Gaeumannomyces tritici, UniProt Q8X150); experiment: Determination of substrate specificity (Michaelis-Menten kinetics, hydroperoxide formation at 234 nm); conditions: lipoxygenase produced as in Example 4, standard assay, 25° C., pH 7.0
lipoxygenase, sequence (Q8X150 17-618): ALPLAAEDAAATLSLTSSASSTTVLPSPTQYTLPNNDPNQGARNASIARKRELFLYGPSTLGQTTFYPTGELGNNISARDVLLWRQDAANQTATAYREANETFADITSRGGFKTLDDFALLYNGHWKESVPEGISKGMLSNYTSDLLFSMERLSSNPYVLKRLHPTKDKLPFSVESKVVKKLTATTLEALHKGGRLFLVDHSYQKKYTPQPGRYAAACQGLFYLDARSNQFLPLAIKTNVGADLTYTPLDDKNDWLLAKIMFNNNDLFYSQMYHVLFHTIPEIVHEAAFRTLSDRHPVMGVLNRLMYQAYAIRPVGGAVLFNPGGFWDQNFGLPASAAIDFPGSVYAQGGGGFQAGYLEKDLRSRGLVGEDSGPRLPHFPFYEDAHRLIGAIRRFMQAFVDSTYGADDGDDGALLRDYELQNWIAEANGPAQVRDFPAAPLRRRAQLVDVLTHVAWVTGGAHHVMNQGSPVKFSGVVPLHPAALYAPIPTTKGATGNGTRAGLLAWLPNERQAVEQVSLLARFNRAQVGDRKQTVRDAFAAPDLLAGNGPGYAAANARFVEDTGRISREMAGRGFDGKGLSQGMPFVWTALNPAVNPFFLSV
Protocol: as §1, §2, §3

Row | Compound | Km [1] [µM] | Km [2] [µM] | Km [3] [µM] | kcat ([4]; kcat (or Vmax)) [micro-mol/min/mg] | Km [4] [µM]
1 | lipoxygenase (Gaeumannomyces tritici) | 17.5 | 164 | 3.4 |  | 
2 | CCCCC/C=C\C/C=C\CCCCCCCC(=O)O [Linoleic acid] |  |  |  | 5.63 | 6.8
